Experimental data taken from patent publication US9791449B2, “Ovarian cancer stem cells and methods of isolation and uses thereof” (THE GENERAL HOSPITAL CORPORATION, priority 2011, dated 2017).
“Also recorded” adds a separate entry of the source.

Columns and labels:
3+/Ecad− OVCAR-5 cells = experiment: Colony formation assay of FACS-separated cells; type: cell-based, human; settings: OVCAR-5 3+/Ecad− cells, 2000 cells in six-well plates; MIS 30 ug/ml or Doxorubicin 30 nM vs media, 14 days
Procedure: Colony formation was performed as previously described (4; wei 2010). 3+/Ecad− or 3−/Ecad+ cells separated from the ovarian cancer cell lines were treated with MIS or doxorubicin, cisplatin, or taxol, then plated on 6-well plates containing 2 ml/well complete DMEM medium at 500, 1000, or 2000 cells/well, and incubated for 14 days at 37° C., with a media change at day 7. Cells separated from primary ascites were plated on 12-well plates coated by metrigel or by agarose for colony formation assays at 25,000, 50,000, or 100,000 cells/well. Cells were seeded on 1:2 metrigel or in 0.4% agarose over a 0.8% layer, and incubated for 3-4 weeks at 37° C. At day 14 (cell lines) or day 21 (ascites), plates were washed with 1×PBS, and cells fixed with methanol. Resulting colonies were stained with Giemsa and the stained area captured and analyzed using Image J (Rasband, NIH, USA, http://rsb.info.nih.gov/ij/). Large colonies greater than 4 mm at 10× magnification were also counted and compared.

OVCAR-5 cells = experiment: Cell cycle analysis by flow cytometry; type: cell-based, human; settings: 100 μg/mL (714 nM) MIS or 60 nM doxorubicin, 48 h
Procedure: OVCAR-5 was grown to 50-60% confluency in DMEM with 10% FCS, untreated or treated with 100 μg/mL (714 nM) MIS or 60 nM doxorubicin for 48 h, harvested, and incubated with 10 μg/mL Hoechst 33342 at 37° C. for 30 min or 40 μg/mL propidium iodide (Sigma) at 25° C. for 30 min. Cells were stained with anti-human CD24-PE, anti-mouse/human CD44-APC/Cy7, anti-human Epcam-APC, and anti-human Ecadherin-FITC for 20 min at 4° C. and fixed in paraformaldehyde (1%), and the cell cycle was analyzed using the SORP LSRII.

[1] = test system: MOVCAR-7 and MOVCAR-8 cell lines; experiment: qPCR of CDK inhibitor mRNAs relative to GAPDH; type: cell-based, mouse
Procedure: Total microRNA (miRNAs) were extracted from the different cell lines HOSE-4, HOSE-6, OVCAR-5, OVCAR-3, OVCAR-8, IGROV-1, and SKOV-3 using the miRNeasy Mini kit (QIAGEN) and reverse-transcribed to cDNAs using the TaqMan MicroRNA Reverse Transcription Kit (Applied Biosystems). Levels of Let-7c miRNAs were measured by quantitative PCR using TagMan Let-7 probes (Applied Biosystems; part no. 4373167) with U47 RNA as internal standard for normalization. Total mRNAs were also extracted from separated and unseparated OVCAR-5, MOVCAR-7, and MOVCAR-8 cell lines using an RNeasy Mini kit (QIAGEN) and reverse-transcribed to cDNAs using the SuperScript III Reverse Transcription Kit (Invitrogen). Levels of Lin28 and cyclin-dependent kinase (CDK) inhibitor mRNAs were measured by quantitative PCR with GAPDH as an internal standard using the following primers: […]
LIN28 F ([…])(SEQ ID NO: 34) and R ([…])(SEQ ID NO: 35); p15 F ([…])(SEQ ID NO: 36) and R ([…])(SEQ ID NO: 37); p16 F ([…])(SEQ ID NO: 38) and R ([…])(SEQ ID NO: 39); p18 F ([…])(SEQ ID NO: 40) and R ([…])(SEQ ID NO: 41); p19F ([…])(SEQ ID NO: 42) and R ([…])(SEQ ID NO: 43); p21 F ([…])(SEQ ID NO: 44) and R ([…])(SEQ ID NO: 45); p27 F ([…])(SEQ ID NO: 46) and R ([…])(SEQ ID NO: 47); CDK2 F ([…])(SEQ ID NO: 48) and R ([…])(SEQ ID NO: 49); CDK4 F ([…])(SEQ ID NO: 50) and R([…])(SEQ ID NO: 51); CDK6 F ([…])(SEQ ID NO: 52) and R ([…])(SEQ ID NO: 53); and GAPDH F ([…])(SEQ ID NO: 54) and R ([…])(SEQ ID NO: 55). Relative fold changes of Let-7c miRNAs and Lin28 and CDK inhibitor mRNAs were calculated as ΔCt or ΔΔCt (1) (n=3 for each primer).

[2] = test system: SMAD1/5/8 in MOVCAR-8 cells; experiment: Western blot with phospho-Smad1/5/8 antibody; type: cell-based, mouse; settings: MOVCAR-8, 20 ug/ml MIS for 15 min, 2, 4 and 6 h
Procedure: (§1) FIGS. 5A-5B show MISRII is expressed in ovarian cancer cell lines and SMAD 1/5/8 is phosphorylated after treatment with purified MIS. FIG. 5A show expression of MIS type II receptor in human ovarian cancer cell lines OVCAR-5, IGROV-1 and SKOV-3, and in mouse ovarian cancer cell line MOVCAR-8 were analyzed by immunoprecipitation and cross immunoblotting (IB) of lysates with anti-MISRII (Left) Immunoblotting was also performed to detect MISRII expression in separated 3+, 3−, 3+/Ecad−, 3−Ecad+ of OVCAR-5 xenograft tumors (Right). COS cells transfected with a MISRII vector or a pcDNA empty vector served as positive or negative controls (Right). […] MOVCAR-8 (Left) or OVCAR-5 (Right) cells were treated with 20 ug/ml (Left) or 100 ug/ml (Right) MIS for 15 min, 2, 4 and 6 h, and protein was analyzed by Western blot using a phospho-Smad1/5/8 antibody.
(§2) Lysates were harvested in lysis buffer (Cell Signaling; catalog no. 9803) for 15 min from 80% subconfluent cells or from ascite cells after lysing red cells. Proteins were fractionated on SDS-polyacrylamide gels and transferred to a membrane. […] Blots were washed (three times) with TBST the following day for 30 min and incubated with the appropriate peroxidase-conjugated second antibodies for 1 h, and bound antibodies were detected with enhanced chemiluminescence (PerkinElmer Life Sciences).

[3] = test system: SMAD1/5/8 in OVCAR-5 cells; experiment: Western blot with phospho-Smad1/5/8 antibody; type: cell-based, human; settings: OVCAR-5, 100 ug/ml MIS for 15 min, 2, 4 and 6 h
Procedure: as §1, §2

[4] = test system: Lin28 in OVCAR-5 cells or primary ascites; experiment: Effect of exogenously administered MIS on Lin28 expression; type: cell-based, human; settings: separated or unseparated OVCAR-5 cells or primary ascites; data not shown
[5] = test system: ovarian cancer cells marked by CD44, CD24, and Epcam (3+); settings: cited from earlier work
3+/Ecad− population = settings: cited from earlier work
[6] = test system: epithelial ovarian cancers; settings: cited from earlier work
[7] = in vivo; cited from earlier work
OVCAR-8 cells = settings: cited from earlier work
[8] = listed as human recombinant MIS

B1: MIS: 140 kDa glycoprotein disulfide linked homodimer secreted by fetal testes; produced recombinantly and immunoaffinity purified (protein, listed as Homo sapiens)
chain: MRDLPLTSLALVLSALGALLGTEALRAEEPAVGTSGLIFREDLDWPPGSPQEPLCLVALGGDSNGSSSPLRVVGALSAYEQAFLGAVQRARWGPRDLATFGVCNTGDRQAALPSLRRLGAWLRDPGGQRLVVLHLEEVTWEPTPSLRFQEPPPGGAGPPELALLVLYPGPGPEVTVTRAGLPGAQSLCPSRDTRYLVLAVDRPAGAWRGSGLALTLQPRGEDSRLSTARLQALLFGDDHRCFTRMTPALLLLPRSEPAPLPAHGQLDTVPFPPPRPSAELEESPPSADPFLETLTRLVRALRVPPARASAPRLALDPDALAGFPQGLVNLSDPAALERLLDGEEPLLLLLRPTAATTGDPAPLHDPTSAPWATALARRVAAELQAAAAELRSLPGLPPATAPLLARLLALCPGGPGGLGDPLRALLLLKALQGLRVEWRGRDPRGPGRAQRSAGATAADGPCALRELSVDLRAERSVLIPETYQANNCQGVCGWPQSDRNPRYGNHVVLLLKMQARGAALARPPCCVPTAYAGKLLISLSEERISAHHVPNMVATECGCR
modifications: homodimer
For B1, the “colony formation of 3+/Ecad− cells” value (3+/Ecad− OVCAR-5 cells) was “decreased colony formation; also recorded: decreases significantly; also recorded: significantly inhibited colony growth; also recorded: significant reduction in absolute colony number and cell number; also recorded: significant reduction in absolute colony numbers; also recorded: inhibited colony formation”, the “G1 distribution of 3+/Ecad+ population” value (OVCAR-5 cells) was “neither MIS nor doxorubicin affected” and the “percentage of 3+/Ecad− cells in G1” value (OVCAR-5 cells) was “inducing G1 arrest; also recorded: significantly increased; also recorded: G1 accumulation; also recorded: induces G1 cell cycle arrest”. For the same molecule, the p15 expression ([1]; MOVCAR-7 and -8, 50 μg/mL MIS or 60 nM doxorubicin vs vehicle, 4 h) was “specifically increased; also recorded: significant and opposite responses”, the “other CDK inhibitors mRNA levels (p18, p19, p21, p27)” value ([1]; MOVCAR-7 or -8, 50 μg/mL MIS or 60 nM doxorubicin, 4 h) was “did not regulate significantly” and the p16 expression ([1]; MOVCAR-8, 50 μg/mL MIS vs vehicle, 4 h) was “specifically increased”. The “kinases tested (CDK2, CDK4, CDK6)” value ([1]; transgenic cell lines treated with MIS or doxorubicin, data not shown) was “unaffected”, the SMAD1/5/8 phosphorylation [2] was “significantly increased” and the SMAD1/5/8 phosphorylation [2, 8] was “activates SMAD1/5/8 signaling”. The SMAD1/5/8 phosphorylation [3] was “significantly increased”, the SMAD1/5/8 phosphorylation [3, 8] was “activates SMAD1/5/8 signaling” and the “effect on Lin28 expression” value [4] was “no direct effect”. For the same molecule, the “inhibition of 3+ enriched population” value [5] was “significantly inhibited”, the “response of 3+/Ecad− population” value (3+/Ecad− population) was “responded well” and the “combination with commonly used cancer drugs to control tumor growth” value [6] was “synergistically or additively”. The “growth of epithelial ovarian cancers” value ([6]; in vitro and in vivo) was “inhibits their growth”, the “toxicity after prolonged therapy” value [7] was “without obvious toxicity” and the P16 protein level (OVCAR-8 cells) was “upregulated”.
